Results reported in US20110014213A1 (JURIDICAL FDN THE CHEMO SERO THERAP RES INS, published 2011).
Changes are numbered by the printed parent chain.

T1: human α9 integrin (human, UniProt Q13797 30-1035)
T1 construct: The β chain partner on the cells is not described; also called hα9; SW480/hα9
T1 sequence: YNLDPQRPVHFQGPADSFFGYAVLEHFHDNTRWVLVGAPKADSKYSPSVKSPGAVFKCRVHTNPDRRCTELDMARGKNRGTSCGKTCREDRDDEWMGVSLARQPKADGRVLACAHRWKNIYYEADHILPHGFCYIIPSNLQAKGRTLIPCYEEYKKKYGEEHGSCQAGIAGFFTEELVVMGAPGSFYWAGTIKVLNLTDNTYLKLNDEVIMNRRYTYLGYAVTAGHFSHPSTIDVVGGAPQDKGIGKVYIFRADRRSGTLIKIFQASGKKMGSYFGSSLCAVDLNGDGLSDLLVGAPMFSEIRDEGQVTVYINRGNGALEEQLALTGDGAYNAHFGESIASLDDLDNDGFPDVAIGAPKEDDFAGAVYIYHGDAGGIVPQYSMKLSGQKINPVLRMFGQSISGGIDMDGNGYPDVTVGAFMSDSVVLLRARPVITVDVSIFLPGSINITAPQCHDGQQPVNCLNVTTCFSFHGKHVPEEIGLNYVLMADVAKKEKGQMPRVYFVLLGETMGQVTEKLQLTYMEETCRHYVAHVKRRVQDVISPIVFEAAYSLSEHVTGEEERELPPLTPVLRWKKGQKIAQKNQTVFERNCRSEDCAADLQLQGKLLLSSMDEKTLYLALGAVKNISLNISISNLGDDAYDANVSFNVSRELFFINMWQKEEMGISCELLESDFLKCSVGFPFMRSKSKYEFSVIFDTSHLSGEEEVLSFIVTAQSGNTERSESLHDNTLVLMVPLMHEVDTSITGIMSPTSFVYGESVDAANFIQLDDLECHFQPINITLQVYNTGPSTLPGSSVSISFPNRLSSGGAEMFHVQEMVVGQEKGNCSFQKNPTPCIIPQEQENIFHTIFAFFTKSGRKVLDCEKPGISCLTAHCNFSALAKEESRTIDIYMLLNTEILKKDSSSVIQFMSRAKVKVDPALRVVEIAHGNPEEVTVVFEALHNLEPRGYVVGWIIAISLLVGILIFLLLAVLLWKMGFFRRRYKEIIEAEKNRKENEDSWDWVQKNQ

T2: mouse α9 integrin (mouse, UniProt B8JK39 29-1036)
T2 chain: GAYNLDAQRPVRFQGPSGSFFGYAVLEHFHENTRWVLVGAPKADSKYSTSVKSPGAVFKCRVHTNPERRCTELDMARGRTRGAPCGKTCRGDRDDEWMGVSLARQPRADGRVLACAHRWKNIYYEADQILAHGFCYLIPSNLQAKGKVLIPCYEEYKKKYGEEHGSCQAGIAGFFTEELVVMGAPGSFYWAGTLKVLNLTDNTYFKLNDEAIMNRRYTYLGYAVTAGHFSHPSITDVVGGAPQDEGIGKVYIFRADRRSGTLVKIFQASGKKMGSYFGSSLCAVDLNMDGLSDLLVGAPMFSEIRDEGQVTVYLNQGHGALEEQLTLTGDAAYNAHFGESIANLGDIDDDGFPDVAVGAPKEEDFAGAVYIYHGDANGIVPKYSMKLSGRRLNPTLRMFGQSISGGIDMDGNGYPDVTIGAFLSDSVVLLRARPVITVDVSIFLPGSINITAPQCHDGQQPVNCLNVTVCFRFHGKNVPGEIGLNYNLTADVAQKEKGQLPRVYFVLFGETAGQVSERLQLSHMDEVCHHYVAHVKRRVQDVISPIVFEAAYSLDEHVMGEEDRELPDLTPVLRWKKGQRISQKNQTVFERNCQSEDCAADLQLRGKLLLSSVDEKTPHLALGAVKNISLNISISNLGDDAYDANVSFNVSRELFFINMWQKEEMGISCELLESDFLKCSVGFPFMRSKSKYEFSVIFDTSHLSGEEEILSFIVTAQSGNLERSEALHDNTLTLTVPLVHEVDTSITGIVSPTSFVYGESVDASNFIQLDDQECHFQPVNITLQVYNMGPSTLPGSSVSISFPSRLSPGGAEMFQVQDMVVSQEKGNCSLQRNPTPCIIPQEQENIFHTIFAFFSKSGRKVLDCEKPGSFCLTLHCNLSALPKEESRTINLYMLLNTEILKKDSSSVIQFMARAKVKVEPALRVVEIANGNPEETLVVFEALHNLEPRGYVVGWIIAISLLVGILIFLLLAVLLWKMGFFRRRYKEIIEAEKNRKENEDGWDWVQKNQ

B1: HA9-212 IgG (antibody, V domains shown)
VH: EVQLVESGGGVVRPGGSLRLSCAASGFAFGEYGMSWVRQAPGKGLEWVSGINWNGGSTGYADSVQGRFTTSRDNAKNSLYLQMNSLRAEDTALYYCARDENYDILTGNYYYGMDVWGQGTTVTVSS
VL: QSVVTQPPSVSAAPGQKVTISCSGSSSNIGNNYVSWYQQLPGTAPKLLIYDNNKRPSGIPDRFSASKSGTSATLGITGLQTGDEADYYCGTWDSSLTVWAFGGGTKLTVLG
notes: VH joined to human IgG1 constant region; VL joined to 'human x chain constant region'; Tested as culture supernatant of COS-7 / FreeStyle 293-F cells
B2: HA9-107 scFv-Fc (Fc fusion, not shown: a dimerising Fc or GST)
scFv: EVQLVESGGGVVRPGGSLRLSCAASGFAFGDYGMSWVRQAPGKGLEWVSGINWNGGSTGYADSVKGRFTTSRDNAKNSLYLQMNSLRAEDTALYYCARDENYDILTNEYYYGMDVWGQGTTVTVSSGGGGSGGGGSGGGGSQSVVTQPPSVSAAPGQKVTISCSGSSSNIGNNYVSWYQQLPGTAPKLLIYDNNKRPSGIPDRFSASKSGTSATLGITGLQTGDEADYYCGTWDSSLTVWAFGGGTKLTVLG
B3: MA9-418 scFv-Fc (Fc fusion, not shown: a dimerising Fc or GST)
scFv: B2 scFv with N107G, E108A
B4: HA9-143 scFv-Fc (Fc fusion, not shown: a dimerising Fc or GST)
scFv: B2 scFv with D31E, N107G, E108H
B5: HA9-212 scFv-Fc (Fc fusion, not shown: a dimerising Fc or GST)
scFv: B2 scFv with D31E, K65Q, N107G, E108N

Key:
human α9 integrin [1] = target: T1, human α9 integrin; test: Cell ELISA of IgG in culture supernatant, anti-human IgG(Fc) detection
Method: CHO/mα9 and CHO were seeded on a 96 well plate (costar) at 2×10⁴ cells/100 μL/well, and incubated overnight at 37° C., 5% CO₂. The medium was suctioned, and the cells were washed with PBS, and reacted with phage antibody diluted with 1% BSA/PBS. The detection was performed by using horse-radish peroxidase (HRP)-labeled anti-M13 antibody (Amersham) and TMB (SIGMA) in combination. The absorbance at wavelengths 450 nm and 650 nm was measured by a microplate reader (Molecular Devices).
SW480/mα9, SW480/hα9 and SW480 were used as antigens, 1% BSA/PBS containing 5% FBS was used as a dilution solution, an HRP-labeled anti-mouse IgG antibody (ZYMED) was used for detection, and the rest was performed under the same conditions as in Example 4.
The IgG expression amount in the culture supernatant was quantified by human IgG quantification ELISA, and the reactivity with human α9 and mouse α9 at each IgG concentration was analyzed by Cell ELISA. HRP-labeled anti-human IgG(Fc) antibody (American Qualex) was used for detection, and the rest was performed under the same conditions as in Example 11.

human α9 integrin [2] = target: T1, human α9 integrin; test: cell-based or functional assay
mouse α9 integrin = target: T2, mouse α9 integrin; test: cell-based or functional assay
human α9 integrin [3] = target: T1, human α9 integrin; test: cell-based or functional assay; remark: listed apart in the source

| Binder | binding result (human α9 integrin [1]) | IC50 of inhibition of α9-dependent cell adhesion (human α9 integrin [2]) [µg/mL] | IC50 of inhibition of α9-dependent cell adhesion (mouse α9 integrin) [µg/mL] | fold inhibitory activity against human α9-dependent cell adhesion, against MA9-413 (human α9 integrin [3]) [fold] |
| --- | --- | --- | --- | --- |
| B1 | binds | – | – | – |
| B2 | – | > 10 | 0.067 | – |
| B3 | – | > 10 | 0.96 | – |
| B4 | – | 0.42 | 2.32 | – |
| B5 | – | 0.053 | 3.3 | ~1000 |
